Data set [1] deals with signal pathway KRas/Raf/ERK/c-myc in KRas mutant-type cells HCT116. The data set is described as follows: Western blot of EGFR downstream signal pathway, HCT116. The following applies: 10 and 20 μg/mL, 24 hours, compared with control TKDm. In kind it is cell-based, human. Here is the method:
• (1) The colorectal cancer cells HCT116 (KRas G13D) and HT29 (KRas wt) were respectively spread in six-well plates, 500,000 cells per well. […] Then, the digestion was stopped with 1 mL of complete culture solution per well, the cell suspension was collected into a 1.5 mL EP tube, and centrifuged at the room temperature and 300 g for 3 minutes to collect cells. The cells were resuspended with 1 mL of PBS, and repeatedly centrifuged once. • (3) The supernatant was removed, 100 μL of lysate was added in each group (item number: P0013G; purchased from Beyotime Biotechnology Company). The cells were lysed on ice, vortically vibrated every 5 minutes, and centrifuged at 4° C. and 12,000 rpm for 30 minutes after being lysed for 30 minutes, and the supernatant was collected in a new 1.5 mL EP tube. • (4) The protein concentration was measured by the BCA method, and 20 μg of protein was taken from each group for SDS denaturation gel electrophoresis, transferred and blocked with 5% skim milk for 1 hour.
Background: A western blot detects proteins with antibodies after separation by electrophoresis.

Data set [2] concerns the target T1, KRas protein in HT29 (KRas wt) cells (Homo sapiens, UniProt P01116).
T1 construct: host or cells: HT29
The data set is described as follows: Co-immunoprecipitation (Co-IP) in HT29 cells. As to conditions: 20 μg/mL, 24 hours, Lys05 10 μM. The data set is classed as cell-based. Here is the method:
The co-immunoprecipitation experiment (Co-IP) was an important means to detect the intracellular interaction of the protein. […] The experiment was carried out in the presence of the lysosome inhibitor Lys05 with a final concentration of 10 μM. • (2) The cells were cultured and treated at 37° C. for 24 hours, and then cleaned twice with PBS, and 1 mL of 0.25% pancreatin was added into each culture dish to digest the cells and make the cells fall off from the culture dish wall. Then, 2 mL of complete culture solution was added into each culture dish to stop the digestion , centrifuged at the room temperature and 300 g for 3 minutes, to collect the cells. […] The colorectal cancer cells were lysed on ice, turned upside down for several times every 5 minutes gently without vortex, and centrifuged at 4° C. and 12,000 rpm for 30 minutes after being lysed for 30 minutes. • (4) The supernatant was transferred to a new EP tube, the protein concentration was measured by the BCA method, and then 1 mg of protein was taken from each group for a Co-IP reaction. […] Meanwhile, 30 μL of protein sample was also taken from the Input group, vortically vibrated for 1 minute, boiled in boiled water for 10 minutes, and centrifuged, and the supernatant was collected in a new 1.5 mL EP tube. • (8) The protein concentration was measured by the BCA method. […]

Another data set concerns HCT116 cells. The data set is described as follows: Flow cytometry of tumor cell targeting, HCT116. In kind it is cell-based, human. As to conditions: tested as 60 nM TKD-Cy5, 1 hour, Lys 05 10 μM. Here is the method:
Wherein, the protein C18 column (25 cm×10 mm) was used, with sample injection of 2×400 μL each time, and gradient elution was carried out for 30 minutes, 0.1% TFA (trifluoroacetic acid) solution to MeCN (acetonitrile): H2O (0.1% TFA)=70:30, and a flow rate was 4 mL/min. • (4) Target color tape peaks were collected, and the retention time of a labeled polypeptide was longer than that of an unlabeled polypeptide. • (5) The TKD-Cy5 molecule was diluted to 60 μM, and stored in a PBS solution, and kept in the dark at −20° C. 2. […] The cells were treated with corresponding drugs, namely, in the experimental groups, the cells were treated with 60 nM TKD-Cy5 coupling molecule, and in the control groups, the cells were treated with the Cy5 single molecule with corresponding concentration. The lysosome inhibitor Lys 05 with the final concentration of 10 μM was added into the control groups and the experimental groups at the same time, and the final volume of the culture solution in each well was 1 mL. […] The cells were resuspended with the PBS buffer solution, and centrifuged again, and the supernatant was discarded. The operation was repeated for three times. Finally, the cleaned cells were resuspended in 0.2 mL of PBS, wrapped with foil paper, and then analyzed on the flow cytometer (company: BECKMAN COULTER; model: Cytoflex), with the fluorescence channel of APC-A.

Data set [3] in a line: Toxic and side effects in mice (body weight, HE histopathology). The data set is classed as in vivo. As to conditions: 25 and 50 mg/kg intraperitoneal, seven times (3 weeks). Here is the method: • (1) Balb/c nude mice, female, 4 weeks to 5 weeks old, purchased from Guangdong Laboratory Animal Center and raised in Laboratory Animal Center of Sun Yat-sen University, were used in this experiment. […] The mice were administered once every three days at a fixed time. Meanwhile, changes in body state, mental state and weight of the mice were observed and recorded. • (3) After continuous administration for seven times (3 weeks), the mice were euthanized (killed by cervical dislocation). […] All the animal experiments were carried out within relevant regulations of animal ethics of Sun Yat-sen University.

B1: TKD: fusion protein: tumour-cell-penetrating peptide BR2, anti-KRas nanobody VHH and lysosome recognition peptide CTM; SEQ ID NO.4 (protein)
chain: RAGLQFPVGRLLRRLLRDVQLQESGGGLVQAGGSLRLSCVASGRTFSTYPTGWFRQAPGKEREFVARINLSGGITNYADSVKGRFTISRDNAKNTVYLQMNSLKPEDTAVYYCGGGSTTWAGGIPTNFDYWGQGTQVTVSSGRKFERQKILDQRFFE
With B1, the “inhibition of activation of EGFR downstream signal pathway KRas/Raf/ERK/c-myc (western blot)” value in data set [1] is given as “could significantly inhibit the activation of the EGFR downstream signal pathway KRas/Raf/ERK/c-myc”. Further, in data set [2], the “binding to KRas protein in cells (Co-IP)” value is “could pass through the cell membrane and bind to the wild-type and mutant-type KRas proteins in cells without discrimination”. The “entry into cells (flow cytometry, Cy5 fluorescence)” value in the data set with HCT116 cells is “could specifically recognize and pass through the cell membrane to enter the colorectal cancer cells”. Moreover, in data set [3] (once every three days, vs PBS), the “changes in body weight” value is recorded as “did not show obvious changes in body weight”. Moreover, the “pathological analysis of lung, liver, spleen and kidney (HE)” value in data set [3] was “did not damage vital organs including lung, liver, spleen and kidney of the mice”.

The record behind these values is US12508311B2, “Fusion protein, and preparation method and use thereof” (SUN YAT-SEN UNIVERSITY, priority 2021, dated 2025).
